In article doi:10.1101/2021.06.09.447696, “A dual allosteric pathway drives human mitochondrial Lon” (bioRxiv, 2021):
Blank lines part the entries; values can stand above or below the binder they belong to.

B3: human mitochondrial Lon (68-959) K898A (enzyme, UniProt P36776 68-959, looked up)
chain: FWEASSRGGGAFSGGEDASEGGAEEGAGGAGGSAGAGEGPVITALTPMTIPDVFPHLPLIAITRNPVFPRFIKIIEVKNKKLVELLRRKVRLAQPYVGVFLKRDDSNESDVVESLDEIYHTGTFAQIHEMQDLGDKLRMIVMGHRRVHISRQLEVEPEEPEAENKHKPRRKSKRGKKEAEDELSARHPAELAMEPTPELPAEVLMVEVENVVHEDFQVTEEVKALTAEIVKTIRDIIALNPLYRESVLQMMQAGQRVVDNPIYLSDMGAALTGAESHELQDVLEETNIPKRLYKALSLLKKEFELSKLQQRLGREVEEKIKQTHRKYLLQEQLKIIKKELGLEKDDKDAIEEKFRERLKELVVPKHVMDVVDEELSKLGLLDNHSSEFNVTRNYLDWLTSIPWGKYSNENLDLARAQAVLEEDHYGMEDVKKRILEFIAVSQLRGSTQGKILCFYGPPGVGKTSIARSIARALNREYFRFSVGGMTDVAEIKGHRRTYVGAMPGKIIQCLKKTKTENPLILIDEVDKIGRGYQGDPSSALLELLDPEQNANFLDHYLDVPVDLSKVLFICTANVTDTIPEPLRDRMEMINVSGYVAQEKLAIAERYLVPQARALCGLDESKAKLSSDVLTLLIKQYCRESGVRNLQKQVEKVLRKSAYKIVSGEAESVEVTPENLQDFVGKPVFTVERMYDVTPPGVVMGLAWTAMGGSTLFVETSLRRPQDKDAKGDKDGSLEVTGQLGEVMKESARIAYTFARAFLMQHAPANDYLVTSHIHLHVPEGATPKDGPSAGCTIVTALLSLAMGRPVRQNLAMTGEVSLTGKILPVGGIKEATIAAKRAGVTCIVLPAENKKDFYDLAAFITEGLEVHFVEHYREIFDIAFPDEQAEALAVER
notes: human mitochondrial LonP1, mature protein, residues 68-959 of UniProt P36776, with K898A; The substrate is trapped as a covalent ester intermediate on S855; also called Lon^K898A; substrate-trapped Lon; not shown: His6, N-terminal, cleaved

Assays:
[1] = target: the molecule itself; experiment: cryo-EM structure; 0.5-0.7 mg/ml Lon construct in 20 mM HEPES pH 7.5, 100 mM NaCl, 10 mM MgCl2, 3% glycerol, 2 mM ATP added to 0.2 mg/ml TFAM, 30 s at room temperature, then vitrified; single-particle reconstruction
[2] = target: the molecule itself; experiment: SEC; Superose 6 Increase 3.2/300; 25 mM Tris-HCl pH 8.0, 10% glycerol, 1 mM DTT, 50 mM NaCl, 2 mM ATP; protein incubated at 37°C for 10 min with 2 mM ATP and 10 mM MgCl2; fractions analysed by SDS-PAGE
[3] = target: B3; experiment: cryo-EM structure; 0.5-0.7 mg/ml Lon construct in 20 mM HEPES pH 7.5, 100 mM NaCl, 10 mM MgCl2, 3% glycerol, 2 mM ATP added to 0.2 mg/ml TFAM, 30 s at room temperature, then vitrified; single-particle reconstruction; settings: both partners purified
[4] = target: T1, human mitochondrial Lon, full-length mature form (68-959), wild type (human, UniProt P36776 68-959); experiment: as above; settings: both partners purified
T1 construct: human mitochondrial LonP1, mature protein, residues 68-959 of UniProt P36776; Homohexamer in the cryo-EM structure; vector pNIC28-Bsa4; also called LonP1; wt-Lon; not shown: His6, N-terminal, cleaved
T1 sequence (looked up): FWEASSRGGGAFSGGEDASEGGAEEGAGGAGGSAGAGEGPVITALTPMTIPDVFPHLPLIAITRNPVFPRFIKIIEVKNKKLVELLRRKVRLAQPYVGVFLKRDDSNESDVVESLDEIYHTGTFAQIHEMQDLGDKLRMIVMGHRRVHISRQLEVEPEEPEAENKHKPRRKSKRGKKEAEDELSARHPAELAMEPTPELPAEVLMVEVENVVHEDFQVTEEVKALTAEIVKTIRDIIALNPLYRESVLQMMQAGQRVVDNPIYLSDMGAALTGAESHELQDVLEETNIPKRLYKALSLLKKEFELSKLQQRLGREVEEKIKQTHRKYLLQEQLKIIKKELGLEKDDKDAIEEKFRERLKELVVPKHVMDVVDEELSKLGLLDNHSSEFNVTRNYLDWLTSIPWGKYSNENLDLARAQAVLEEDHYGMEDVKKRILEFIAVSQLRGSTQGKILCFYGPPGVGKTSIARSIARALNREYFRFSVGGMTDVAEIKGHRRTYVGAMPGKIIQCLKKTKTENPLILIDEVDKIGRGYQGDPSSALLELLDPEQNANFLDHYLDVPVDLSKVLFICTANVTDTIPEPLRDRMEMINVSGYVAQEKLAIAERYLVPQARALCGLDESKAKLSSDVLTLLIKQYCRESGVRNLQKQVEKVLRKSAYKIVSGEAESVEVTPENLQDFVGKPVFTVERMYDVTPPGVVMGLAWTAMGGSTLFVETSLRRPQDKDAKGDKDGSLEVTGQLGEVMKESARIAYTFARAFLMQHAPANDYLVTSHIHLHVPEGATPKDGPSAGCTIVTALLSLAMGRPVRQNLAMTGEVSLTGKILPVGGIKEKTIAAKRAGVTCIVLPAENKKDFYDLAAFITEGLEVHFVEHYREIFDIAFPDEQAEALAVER

B1: human mitochondrial Lon (68-959) G106P, R563W, K594M (enzyme, UniProt P36776 68-959, looked up)
chain: FWEASSRGGGAFSGGEDASEGGAEEGAGGAGGSAGAGEPPVITALTPMTIPDVFPHLPLIAITRNPVFPRFIKIIEVKNKKLVELLRRKVRLAQPYVGVFLKRDDSNESDVVESLDEIYHTGTFAQIHEMQDLGDKLRMIVMGHRRVHISRQLEVEPEEPEAENKHKPRRKSKRGKKEAEDELSARHPAELAMEPTPELPAEVLMVEVENVVHEDFQVTEEVKALTAEIVKTIRDIIALNPLYRESVLQMMQAGQRVVDNPIYLSDMGAALTGAESHELQDVLEETNIPKRLYKALSLLKKEFELSKLQQRLGREVEEKIKQTHRKYLLQEQLKIIKKELGLEKDDKDAIEEKFRERLKELVVPKHVMDVVDEELSKLGLLDNHSSEFNVTRNYLDWLTSIPWGKYSNENLDLARAQAVLEEDHYGMEDVKKRILEFIAVSQLRGSTQGKILCFYGPPGVGKTSIARSIARALNREYFRFSVGGMTDVAEIKGHRWTYVGAMPGKIIQCLKKTKTENPLILIDEVDMIGRGYQGDPSSALLELLDPEQNANFLDHYLDVPVDLSKVLFICTANVTDTIPEPLRDRMEMINVSGYVAQEKLAIAERYLVPQARALCGLDESKAKLSSDVLTLLIKQYCRESGVRNLQKQVEKVLRKSAYKIVSGEAESVEVTPENLQDFVGKPVFTVERMYDVTPPGVVMGLAWTAMGGSTLFVETSLRRPQDKDAKGDKDGSLEVTGQLGEVMKESARIAYTFARAFLMQHAPANDYLVTSHIHLHVPEGATPKDGPSAGCTIVTALLSLAMGRPVRQNLAMTGEVSLTGKILPVGGIKEKTIAAKRAGVTCIVLPAENKKDFYDLAAFITEGLEVHFVEHYREIFDIAFPDEQAEALAVER
notes: human mitochondrial LonP1, mature protein, residues 68-959 of UniProt P36776, with the mutations G106P, R563W and K594M that arose spontaneously on cloning; also called Lon^Apo; substrate-free form of Lon; not shown: His6, N-terminal, cleaved
binding result [1]: binds

B2: human mitochondrial Lon (68-959) L396A (enzyme, UniProt P36776 68-959, looked up)
chain: FWEASSRGGGAFSGGEDASEGGAEEGAGGAGGSAGAGEGPVITALTPMTIPDVFPHLPLIAITRNPVFPRFIKIIEVKNKKLVELLRRKVRLAQPYVGVFLKRDDSNESDVVESLDEIYHTGTFAQIHEMQDLGDKLRMIVMGHRRVHISRQLEVEPEEPEAENKHKPRRKSKRGKKEAEDELSARHPAELAMEPTPELPAEVLMVEVENVVHEDFQVTEEVKALTAEIVKTIRDIIALNPLYRESVLQMMQAGQRVVDNPIYLSDMGAALTGAESHELQDVLEETNIPKRLYKALSLLKKEFELSKLQQRLGREVEEKIKQTHRKYLAQEQLKIIKKELGLEKDDKDAIEEKFRERLKELVVPKHVMDVVDEELSKLGLLDNHSSEFNVTRNYLDWLTSIPWGKYSNENLDLARAQAVLEEDHYGMEDVKKRILEFIAVSQLRGSTQGKILCFYGPPGVGKTSIARSIARALNREYFRFSVGGMTDVAEIKGHRRTYVGAMPGKIIQCLKKTKTENPLILIDEVDKIGRGYQGDPSSALLELLDPEQNANFLDHYLDVPVDLSKVLFICTANVTDTIPEPLRDRMEMINVSGYVAQEKLAIAERYLVPQARALCGLDESKAKLSSDVLTLLIKQYCRESGVRNLQKQVEKVLRKSAYKIVSGEAESVEVTPENLQDFVGKPVFTVERMYDVTPPGVVMGLAWTAMGGSTLFVETSLRRPQDKDAKGDKDGSLEVTGQLGEVMKESARIAYTFARAFLMQHAPANDYLVTSHIHLHVPEGATPKDGPSAGCTIVTALLSLAMGRPVRQNLAMTGEVSLTGKILPVGGIKEKTIAAKRAGVTCIVLPAENKKDFYDLAAFITEGLEVHFVEHYREIFDIAFPDEQAEALAVER
notes: human mitochondrial LonP1, mature protein, residues 68-959 of UniProt P36776, with L396A; also called L396A Lon mutant; Lon L396A; not shown: His6, N-terminal, cleaved
binding result [2]: binds

Binder: B3
stoichiometry N [1]: 6

binding result [3]: binds
binding result [4]: binds
B4: mitochondrial transcription factor A, mature (amino acids 43-246) (natural protein, UniProt Q00059 43-246, looked up)
chain: SSVLASCPKKPVSSYLRFSKEQLPIFKAQNPDAKTTELIRRIAQRWRELPDSKKKIYQDAYRAEWQVYKEEISRFKEQLTPSQIMSLEKEIMDKHLKRKAMTKKKELTLLGKPKRPRSAYNVYVAERFQEAKGDSPQEKLKTVKENWKNLSDSEKELYIQHAKEDETRYHNEMKSWEEQMIEVGRKDLLRRTIKKQRKYGAEEC
notes: mitochondrial transcription factor A (TFAM), mature, amino acids 43-246; also called TFAM; substrate; not shown: His6, N-terminal, cleaved
